Results from US9505823.

Biological target: IGF-I receptor (on L6 cells) (UniProt P24062)
Test: cell-based or functional assay

UniProt P24062, sequence (P24062 31-1370 limits assumed): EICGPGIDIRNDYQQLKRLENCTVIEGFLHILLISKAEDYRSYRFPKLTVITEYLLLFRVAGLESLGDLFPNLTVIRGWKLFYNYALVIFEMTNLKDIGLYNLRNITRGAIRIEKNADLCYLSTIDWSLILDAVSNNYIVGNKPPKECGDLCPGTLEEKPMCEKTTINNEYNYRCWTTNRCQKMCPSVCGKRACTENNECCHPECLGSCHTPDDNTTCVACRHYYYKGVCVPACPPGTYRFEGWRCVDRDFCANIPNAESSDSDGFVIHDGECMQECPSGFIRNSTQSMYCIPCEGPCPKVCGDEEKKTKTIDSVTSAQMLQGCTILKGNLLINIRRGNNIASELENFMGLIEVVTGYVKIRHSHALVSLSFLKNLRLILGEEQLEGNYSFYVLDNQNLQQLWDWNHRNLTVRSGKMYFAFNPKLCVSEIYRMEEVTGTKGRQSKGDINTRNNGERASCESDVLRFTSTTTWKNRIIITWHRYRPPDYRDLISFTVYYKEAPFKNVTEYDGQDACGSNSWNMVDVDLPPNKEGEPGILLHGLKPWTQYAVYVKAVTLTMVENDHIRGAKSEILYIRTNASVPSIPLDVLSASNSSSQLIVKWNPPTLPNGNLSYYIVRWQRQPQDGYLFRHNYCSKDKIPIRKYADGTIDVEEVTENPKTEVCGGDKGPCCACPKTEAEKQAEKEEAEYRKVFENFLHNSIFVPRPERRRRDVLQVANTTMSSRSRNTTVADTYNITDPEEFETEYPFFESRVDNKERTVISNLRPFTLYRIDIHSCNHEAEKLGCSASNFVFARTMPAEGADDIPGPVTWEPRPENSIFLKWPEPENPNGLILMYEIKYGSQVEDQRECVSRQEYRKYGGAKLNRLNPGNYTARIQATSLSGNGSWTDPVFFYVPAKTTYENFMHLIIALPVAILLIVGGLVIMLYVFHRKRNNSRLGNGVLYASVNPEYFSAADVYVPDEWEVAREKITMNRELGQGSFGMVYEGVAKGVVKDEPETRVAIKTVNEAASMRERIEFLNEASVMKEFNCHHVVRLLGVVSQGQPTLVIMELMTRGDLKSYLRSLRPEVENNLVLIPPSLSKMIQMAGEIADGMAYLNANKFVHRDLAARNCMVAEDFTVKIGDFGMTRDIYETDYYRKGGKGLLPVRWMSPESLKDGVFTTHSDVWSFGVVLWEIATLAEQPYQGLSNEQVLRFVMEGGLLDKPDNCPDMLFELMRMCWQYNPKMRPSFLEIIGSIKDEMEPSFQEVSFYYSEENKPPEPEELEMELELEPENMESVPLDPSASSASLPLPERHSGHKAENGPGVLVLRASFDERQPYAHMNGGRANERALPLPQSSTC

EC50 of L6 cell proliferation (CellTiter-Glo, 2 days) | EC50 of mitogenic activity, L6 cells | Percent mitogenic activity, L6 cells (insulin = 100) | Substance
0.04 nM | 0.07 nM | 5230 percent | IGF-I (from UniProt P05019 49-118) (ligand)
0.9 nM | 4.73 nM | 77 percent | Glargine (Lantus, Aventis) (ligand)
– | 14.8 nM | 24.7 percent | Levemir (ligand)
